Experimental data taken from US20060257938A1, “Method of screening for drugs that block ligand binding to a lipid binding protein” (priority 2005, published 2006).
Substitutions are numbered along the chain they refer to.

B1: 36E2, 72A (protein, listed as Rattus norvegicus)
chain: AFDGTWKVDRNENYEKFMEKMGINVVKRKLGAHDNEKLTITQEGNKFTVKESSNFRNIDVVFELGVDFAYSAADGTELTGTWTMEGNKLVGKFKRVDNGKELIAVREISGNELIQTYTYEGVEAKRIFKKE
modifications: PEPTIDE (1)...(131) wild-type rat intestinal fatty acid binding protein
B2: 36L, 72A wt (protein, listed as Rattus norvegicus)
chain: B1 chain with E36L
modifications: PEPTIDE (1)...(131) wild-type rat intestinal fatty acid binding protein
B3: 36I1, 72A (protein, listed as Rattus norvegicus)
chain: B1 chain with E36I
modifications: PEPTIDE (1)...(131) wild-type rat intestinal fatty acid binding protein
B4: 36K, 72A (protein, listed as Rattus norvegicus)
chain: B1 chain with E36K
modifications: PEPTIDE (1)...(131) wild-type rat intestinal fatty acid binding protein
B5: 36H1, 72A (protein, listed as Rattus norvegicus)
chain: B1 chain with E36H
modifications: PEPTIDE (1)...(131) wild-type rat intestinal fatty acid binding protein
B6: 36F1, 72A (protein, listed as Rattus norvegicus)
chain: B1 chain with E36F
modifications: PEPTIDE (1)...(131) wild-type rat intestinal fatty acid binding protein
B7: 36G2, 72A (protein, listed as Rattus norvegicus)
chain: B1 chain with E36G
modifications: PEPTIDE (1)...(131) wild-type rat intestinal fatty acid binding protein
B8: 102N, 72A (protein, listed as Rattus norvegicus)
chain: B1 chain with E36L, L102N
modifications: PEPTIDE (1)...(131) wild-type rat intestinal fatty acid binding protein
B9: 36M, 72A (protein, listed as Rattus norvegicus)
chain: B1 chain with E36M
modifications: PEPTIDE (1)...(131) wild-type rat intestinal fatty acid binding protein

Assay: Probe fluorescence ratio response to linoleic acid relative to ADIFAB2
Format: binding
Conditions: response relative to ADIFAB2
How it was run: (§1)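 Each fatty acid's response was expressed relative to ADIFAB2, the rI-FABP-L72A probe, as ΔR/ΔRreference. ΔR is the change in the background-corrected two-wavelength intensity ratio R=Fλ1/Fλ2 from its analyte-free baseline R0. Emission was read near about 420-480 nm for unbound and about 495-580 nm for FFA-bound probe.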
With B1 the “DR/DR LA” value was 0.25. For B2, the “DR/DR LA” value was 1.21. For B3, the “DR/DR LA” value was 1.11. In the case of B4, the “DR/DR LA” value is reported as 0.38. For B5, the “DR/DR LA” value was 0.81. In the case of B6, the “DR/DR LA” value is reported as 0.67. In the case of B7, the “DR/DR LA” value is reported as 1.17. For B8, the “DR/DR LA” value was 0.67. In the case of B9, the “DR/DR LA” value is reported as 1.10.

Assay: Probe fluorescence ratio response to linolenic acid relative to ADIFAB2
Format: binding
Conditions: response relative to ADIFAB2
How it was run: as §1
For B1, the “DR/DR LNA” value was 0.23. In the case of B2, the “DR/DR LNA” value is reported as 1.00. With B3 the “DR/DR LNA” value was 1.13. In the case of B4, the “DR/DR LNA” value is reported as 0.42. With B5 the “DR/DR LNA” value was 0.86. With B6 the “DR/DR LNA” value was 0.66. With B7 the “DR/DR LNA” value was 1.16. With B8 the “DR/DR LNA” value was 0.71. With B9 the “DR/DR LNA” value was 1.08.

Assay: Probe fluorescence ratio response to arachidonic acid relative to ADIFAB2
Format: binding
Conditions: arachidonic acid; response relative to ADIFAB2
How it was run: as §1
With B1 the “DR/DR AA” value was 0.24. For B2, the “DR/DR AA” value was 1.25. With B3 the “DR/DR AA” value was 1.01. With B4 the “DR/DR AA” value was 0.38. With B5 the “DR/DR AA” value was 0.76. In the case of B6, the “DR/DR AA” value is reported as 0.66. With B7 the “DR/DR AA” value was 1.00. With B8 the “DR/DR AA” value was 0.64. With B9 the “DR/DR AA” value was 1.23.

Assay: Probe fluorescence ratio response to palmitic acid relative to ADIFAB2
Format: binding
Conditions: response relative to ADIFAB2
How it was run: as §1
With B1 the “DR/DR PA” value was 0.19. For B2, the “DR/DR PA” value was 1.13. For B3, the “DR/DR PA” value was 0.80. With B4 the “DR/DR PA” value was 0.16. In the case of B5, the “DR/DR PA” value is reported as 0.40. For B6, the “DR/DR PA” value was 0.52. With B7 the “DR/DR PA” value was 0.55. For B8, the “DR/DR PA” value was −1.09. In the case of B9, the “DR/DR PA” value is reported as 0.97.

Assay: Probe fluorescence ratio response to oleic acid relative to ADIFAB2
Format: binding
Conditions: response relative to ADIFAB2
How it was run: as §1
In the case of B1, the “DR/DR OA” value is reported as 0.20. With B2 the “DR/DR OA” value was 1.25. In the case of B3, the “DR/DR OA” value is reported as 0.95. For B4, the “DR/DR OA” value was 0.41. For B5, the “DR/DR OA” value was 0.77. In the case of B6, the “DR/DR OA” value is reported as 0.55. In the case of B7, the “DR/DR OA” value is reported as 0.97. For B8, the “DR/DR OA” value was 0.69. For B9, the “DR/DR OA” value was 1.12.
